This note sets out measurements from patent publication US20200277350A1 (DINGFU BIOTARGET, published 2020).

The target of this assay is T1, Human IL10R1 (R&D, 9100-R1-050) (human, UniProt Q13651 22-235).
T1 construct: Bought protein coated on the ELISA plate; also called hIL10R1; human IL10R1 proteins
T1 sequence (looked up): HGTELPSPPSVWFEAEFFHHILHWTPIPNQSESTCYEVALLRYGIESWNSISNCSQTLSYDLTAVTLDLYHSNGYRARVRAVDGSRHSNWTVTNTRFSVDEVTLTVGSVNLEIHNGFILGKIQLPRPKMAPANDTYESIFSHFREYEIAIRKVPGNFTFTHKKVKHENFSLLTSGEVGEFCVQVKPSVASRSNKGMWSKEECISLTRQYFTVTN
Briefly: ELISA, plate coated with human IL10R1, detection with goat anti-hIgG-HRP. For orientation: In an ELISA, binding on a coated surface is turned into a signal by an enzyme label.

Protocol: Human IL10R1 (R&D, 9100-R1-050) was diluted to 5 μg/mL with coating buffer (50 mM Na₂CO₃, NaHCO₃ pH 9.6), 100 μL/well, overnight at 4° C. After washing, the plates were sealed with 3% BSA-PBS for 1 h at 37° C. Then, all samples were respectively diluted from 10000 ng/mL and were diluted 3-fold to a total of 11 concentrations, with the diluent (1% BSA-PBS) as a control, incubated at 37° C. for 2 h. After washing, Goat anti-hIgG-HRP (Sigma, A0170) was added and incubated at 37° C. for 1 h. The soluble one-component TMB substrate developing solution was added, and the developing was performed in dark at room temperature for 5-10 min. 2 N H₂SO₄ 50 μL/well was added to terminate the color development reaction.

B1: Reverse-(IL10)2-Fc9 (Fc fusion)
chain 1: EPKSSDKTHTCPPCPAPELLGGPSVFLFPPKPKDTLMISRTPEVTCVVVDVSHEDPEVKFNWYVDGVEVHNAKTKPREEQYNSTYRVVSVLTVLHQDWLNGKEYKCKVSNKALPAPIEKTISKAKGQPREPQVYTLPPSRDELTKNQVSLSCGVKGFYPSDIAVEWESNGQPENNYKTTPPVLDSDGSFKLASKLTVDKSRWQQGNVFSCSVMHEALHNHYTQKSLSLSPGKGGGGSGGGGSGGGGSSPGQGTQSENSCTHFPGNLPNMLRDLRDAFSRVKTFFQMKDQLDNLLLKESLLEDFKGYLGCQALSEMIQFYLEEVMPQAENQDPDIKAHVNSLGENLKTLRLRLRRCHRFLPCENKSKAVEQVKNAFNKLQEKGIYKAMSEFDIFINYIEAYMTMKIRNGGGGSGGGGSGGGGSSPGQGTQSENSCTHFPGNLPNMLRDLRDAFSRVKTFFQMKDQLDNLLLKESLLEDFKGYLGCQALSEMIQFYLEEVMPQAENQDPDIKAHVNSLGENLKTLRLRLRRCHRFLPCENKSKAVEQVKNAFNKLQEKGIYKAMSEFDIFINYIEAYMTMKIRN
chain 2: DKTHTCPPCPAPELLGGPSVFLFPPKPKDTLMISRTPEVTCVVVDVSHENPEVKFNWYVDGVEVHNAKTKPREEQYNSTYRVVSVLTVLHQDWLNGKEYKCKVSNKALPAPIEKTISKAKGQPREPQVYTLPPSRDELTKNQVSLWCLVKGFYPSDIAVEWESNGQPENNYKTTPPVLDSDGSFFLYSALTVDKSRWQQGNVFSCSVMHEALHNHYTQKSLSLSPGK
notes: also called proteinaceous heterodimer of Group C
As a reminder, the EC50 is the concentration giving half of the maximal effect. Lower therefore signals an effect from little substance. B1 had an EC50 of 0.0123 µg/mL.
